“Also recorded” adds a separate entry of the source. Read-outs that look alike come from different tables or passages of the source. *1 amine or outer side, *2 acyl side, *3 side chain or, on linkers, in order; H or OH if unused. Bridges are numbered along the chain shown (N, C = ends). The star is where a group is joined. fluorescein = fluorescein: a label attached as NHS-fluorescein acylation on the lysine side chain (K*); pXylylene = c1cc(C[*:2])ccc1C[*:1]; Cysteamide = C(CS[*:3])N[*:1]; 4‑pentynyl = C#CCCC*

In one assay the test system is HeLa cells. Put plainly: Cell-based transferrin. Particulars: 50 μM during 60-min pulse and 30-min chase.
Assay [1] addresses Flu-4-PX.
Another assay addresses T1, 4-PX (bridge 1-C; not fully specified (bridges)).
T1 chain: {4‑pentynyl}-CNPFEE-Cysteamide
Put plainly: fluorescence polarization competition. A general note: Polarisation of emitted light reports the rotation of a fluorescent probe.

Another assay addresses T2, cNPF1 (backbone cyclic).
T2 chain: YNPFEEGG
Put plainly: fluorescence polarization competition.

A further assay addresses T3, 4-OX (bridge 1-C; not fully specified (bridges)).
T3 chain: {4‑pentynyl}-CNPFEE-Cysteamide
Put plainly: fluorescence polarization competition.

Another assay addresses T4, 1-PX (thioether 1-C via pXylylene (inferred)).
T4 chain: {4‑pentynyl}-CYNPFEE-Cysteamide
Put plainly: fluorescence polarization competition.

The next assay has as its target T5, 3-OX (bridge 1-C; not fully specified (bridges)).
T5 chain: {4‑pentynyl}-CNPFE-Cysteamide
Put plainly: fluorescence polarization competition.

The next assay has as its target T6, 1-MX (thioether 1-C via meta‑xylene).
T6 chain: {4‑pentynyl}-CYNPFEE-Cysteamide
Put plainly: fluorescence polarization competition.

The next assay has as its target T7, 4-MX (bridge 1-C; not fully specified (bridges)).
T7 chain: {4‑pentynyl}-CNPFEE-Cysteamide
As to the kind of experiment: fluorescence polarization competition.

The target in a further assay is T8, 5-OX (linker 1-6 via ortho‑xylene (inferred)).
T8 chain: Ac-CNPFEC-OH
As to the kind of experiment: fluorescence polarization competition.

The target in assay [2] is Flu-3-OX.
Assay [3] deals with Flu-5-OX.
Assay [4] deals with Flu-4-PX. This is another data set of the same source.
A further assay concerns the target T9, cNPF1Flu.
T9 chain: cyclo(YNPFEEGK(fluorescein))
Put plainly: fluorescence polarization.

Assay [5] deals with Flu-5-OX. This is another data set of the same source.
Assay [6] deals with Flu-1-PX.
Assay [7] has as its target Flu-3-OX. The source holds these as a separate data set.
Assay [8] has as its target Flu-1-PX. The source holds these as a separate data set.

As to `COc1cc(NC(C)CCCN)c2ncccc2c1` (stereo not drawn) [primaquine], the “effect on trafficking/recycling of Tf-488” value in the assay on HeLa cells was “increased signal following the chase, consistent with impaired recycling of internalized Tf-488; also recorded: inhibition of recycling”.

B1: EHD1-EH EH domain (protein)
chain: VGKDKPTYDEIFYTLSPVNGKITGANAKKEMVKSKLPNTVLGKIWKLADVDKDGLLDDEEFALANHLIKVKLEGHELPADLPPHLVPPSKRRHE
As to B1, the Kd – broadly, a measure of binding affinity in units of concentration – was 1.8 µM with Flu-4-PX [1]; 14.6 µM with Flu-3-OX [2]; 1.6 µM with Flu-5-OX [3]; 8.1 µM with Flu-4-PX [4]; 3 µM with cNPF1Flu; 7.3 µM in the assay with Flu-5-OX [5]. Moreover, the Kd is 1.1 µM with Flu-1-PX [6], 4.5 µM in the assay with Flu-3-OX [7] and 6 µM with Flu-1-PX [8]. Also, the IC50 (in general, the midpoint of a concentration-inhibition curve) amounted to 38.9 µM with 4-PX; 55.5 µM with cNPF1; 62.8 µM with 4-OX; 27.1 µM with 1-PX; 76.5 µM with 3-OX; 68.8 µM with 1-MX. In addition, the figures for the IC50 in the assay with 4-MX and with 5-OX were 88.1 µM and 34 µM, respectively.

Source of the values: PMC5844793 (Bioorganic & medicinal chemistry, 2017).
